According to patent publication US20180162932A1 (ACADEMISCH MEDISCH CENTRUM, published 2018):
“And” between values parts separate entries of the source, which are not always exact repeats. Equal values may be shown once. Values belong to the molecule of their own block, whether it stands above or below them.

B1: mouse Noggin (other, UniProt P97466 28-232, looked up)
chain: QHYLHIRPAPSDNLPLVDLIEHPDPIFDPKEKDLNETLLRSLLGGHYDPGFMATSPPEDRPGGGGGPAGGAEDLAELDQLLRQRPSGAMPSEIKGLEFSEGLAQGKKQRLSKKLRRKLQMWLWSQTFCPVLYAWNDLGSRFWPRYVKVGSCFSKRSCSVPEGMVCKPSKSVHLTVLRWRCQRRGGQRCGWIPIQYPIISECKCSC
B6: human mature bone morphogenic protein 4 (ligand)
chain: KHHSQRARKKNKNCRRHSLYVDFSDVGWNDWIVAPPGYQAFYCHGDCPFPLADHLNSTNHAIVQTLVNSVNSSIPKACCVPTELSAISMLYLDEYDKVVLKNYQEMVVEGCGCR
notes: Recombinant, R&D Systems (314-BP-020); mature active dimer; also called BMP4; BMP-4

How the values were obtained:
[1] = target: B6; assay: cell-based or functional assay
[2] = target: T1, mature bone morphogenic protein 2 (human, UniProt P12643 283-396); assay: cell-based or functional assay
T1 sequence (P12643 283-396): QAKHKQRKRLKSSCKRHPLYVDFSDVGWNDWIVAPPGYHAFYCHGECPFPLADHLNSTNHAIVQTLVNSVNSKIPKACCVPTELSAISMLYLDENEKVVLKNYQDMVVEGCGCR

[3] = target: T2, human mature bone morphogenic protein 6 (human, UniProt P22004 375-513); assay: summary of SPR results
T2 construct: also called BMP6; BMP-6
T2 sequence: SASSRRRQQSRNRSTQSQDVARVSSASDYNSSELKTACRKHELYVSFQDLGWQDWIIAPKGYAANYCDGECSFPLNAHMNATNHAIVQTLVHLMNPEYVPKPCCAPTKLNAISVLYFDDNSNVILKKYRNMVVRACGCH

[4] = target: B6; assay: SPR (IBIS MX96), VHH or control on chip, BMP injected
Protocol: (§1) In a first set of experiments, controls and VHHs (either as monomers or dimers) were coupled to SPR chips and the measurement of BMP affinities was obtained by injecting the different BMPs to the plate.
(§2) Serial dilutions (2.0-10 μg/ml) of purified VHHs were spotted on an amine-specific SensEye gold-film gel-type SPRchip (Ssens), using a Continuous Flow Microspotter (Wasatch Microfluidics, Salt Lake City, Utah, United States) as described (Lokate et al., 2007). BMP binding was analyzed on an IBIS MX96 (IBIS Technologies, Enschede, The Netherlands) instrument by performing injections with dilution series (0.05-2.0 μg/ml) of recombinant BMPs on the VHH-coated chip. In each injection, BMPs were injected and incubated for 8 min, followed by 15 min thorough washing with binding buffer (PBS+0.05% Tween20+0.05% sodium azide) to measure dissociation. Epitope binning was done by injecting VHH dilutions (2.0 μg/ml) over the chip, immediately after the dissociation step. Injections with blank binding buffer were used as reference. After each concatenated injection, the chip was regenerated with 10mM glycine-HCl, pH 2.0. Experimental data were processed with SPRintX software (IBIS Technologies) and kinetic parameters were determined using Scrubber2 software (BioLogic Software, Campbell, ACT, Australia). Binding constants were obtained by global fitting to a one-site binding model.

[5] = target: B6; assay: SPR, ratio of KD values
Protocol: as §1, §2

[6] = target: T3, human mature bone morphogenic protein 5 (human, UniProt P22003 340-454); assay: western blot of unreduced recombinant BMP, C4C4 as primary antibody
T3 construct: Often printed as BMPS in the text; also called BMP5; BMPS (so in the source)
T3 sequence: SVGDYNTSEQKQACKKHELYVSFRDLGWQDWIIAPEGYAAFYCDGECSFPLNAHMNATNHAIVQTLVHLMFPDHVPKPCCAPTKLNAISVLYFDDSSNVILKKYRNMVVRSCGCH
Protocol: To determine the different forms of BMP4, recombinant proteins and carcinoma cell lines lysate were used. Protein concentrations of cell lysates were determined using Pierce™ BCA Protein Assay Kit (Pierce Biotechnology, Rockford, Ill. USA), following the manufacturer's protocol. Equal amount of sample were loaded (between 8 and 30 μg/lane) on a 10% SDS-polyacrylamide gel and subsequently blotted onto PVDF transfer membranes. The membranes were blocked with blocking solution (5% Nonfatmilk+Tris-Buffered Saline with Tween®-20 (TBST) or 5% bovine serum albumin (BSA)+TBST) and subsequently incubated with the appropriate primary antibody and secondary antibody. Afterwards, membranes were washed and incubate with chemiluminescent solution (Pierce™ ECL subtract, Pierce Biotechnology, Rockford, Ill. USA) and visualized using ImageQuant LAS 4000 (GE Healthcare Life Science). […] Secondary antibodies include: HRP-anti-rabbit (1:200; Cat. No. P0448; Dako), HRP-anti-mouse (1:2000; Cat. No. P0447; Dako) and HRP-anti-llama (1:1000; Cat. No. ab112786; Abcam).

[7] = target: B6; assay: titration ELISA of purified VHH on immobilized BMP4
[8] = target: B1; assay: SPR (IBIS MX96), VHH or control on chip, BMP injected
Protocol: as §1, §2

[9] = target: T1, mature bone morphogenic protein 2; assay: SPR (IBIS), VHH spotted on the chip, BMP2 injected
Protocol: as §1, §2

[10] = target: T2, human mature bone morphogenic protein 6; assay: SPR, VHH on chip, BMP injected
Protocol: as §2

[11] = target: T3, human mature bone morphogenic protein 5; assay: SPR, VHH on chip, BMP injected
Protocol: as §2

[12] = target: T4, human mature bone morphogenic protein 7 (human, UniProt P18075 293-431); assay: SPR, VHH on chip, BMP injected
T4 construct: also called BMP7; BMP-7
T4 sequence: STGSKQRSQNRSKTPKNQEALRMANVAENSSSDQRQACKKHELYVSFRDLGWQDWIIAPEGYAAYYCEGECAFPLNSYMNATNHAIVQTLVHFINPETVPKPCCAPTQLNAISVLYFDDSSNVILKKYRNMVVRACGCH
Protocol: as §2

Molecule: anti-BMP4 R&D (Clone 66119, Mouse IgG2B, MAB757) (antibody)
percent inhibition of the BMP4-specific signal at 100 ng/ml, BRE-luciferase, C2C12 cells [1]: 30%

Molecule: B1
IC50, BRE-luciferase, C2C12 cells [2]: ~2500 pM
IC50, BRE-luciferase, C2C12 cells [1]: ~615 pM

B3: C4C4 homo-bihead (designed binder)
chain: EVQLVESGGGLVQAGGSLRLSCAASGRTFSTYAMGWFRQAPGKEREFVAAISKGGGITYYSDSVRGRFTISKENAKNTVYLQMNSLKPEDTAVYYCAADPVSSVAKSPVAYPYWGQGTQVTVSSGGGGSGGGGSEVQLVESGGGLVQAGGSLRLSCAASGRTFSTYAMGWFRQAPGKEREFVAAISKGGGITYYSDSVRGRFTISKENAKNTVYLQMNSLKPEDTAVYYCAADPVSSVAKSPVAYPYWGQGTQVTVSS
notes: also called C4C4 dimer
Kd [4]: 9.7 pM
IC50, BRE-luciferase, C2C12 cells [1]: ~600 pM and 1.3 ng/ml and 45 nM
fold increase in inhibition against monomer C4, BRE-luciferase, C2C12 cells [1]: 9 fold
fold higher affinity than BMPR1a [5]: 70 fold
fold higher affinity than Noggin [5]: 10 fold
binding result [6]: no binding (tested: 0.1 µg/ml primary antibody)

B4: C8C8 homo-bihead (designed binder)
chain: EVQLVESGGGLVQAGGSLRLSCAASGRTFRINDMGWYRQAPGKSRDMVARITSGGNTNYADSVKGRFTISRDNAKNTVYLQMNSLKPEDTAVYYCNADGLRFDSTRYRPFDSWGQGTQVTVSSGGGGSGGGGSEVQLVESGGGLVQAGGSLRLSCAASGRTFRINDMGWYRQAPGKSRDMVARITSGGNTNYADSVKGRFTISRDNAKNTVYLQMNSLKPEDTAVYYCNADGLRFDSTRYRPFDSWGQGTQVTVSS
IC50, BRE-luciferase, C2C12 cells [2]: 1200 pM
IC50, BRE-luciferase, C2C12 cells [1]: ~450 pM
fold potency on BMP4 against BMP2, BRE-luciferase, C2C12 cells [1]: 16 fold

B5: VHH C4 (VHH)
VHH: EVQLVESGGGLVQAGGSLRLSCAASGRTFSTYAMGWFRQAPGKEREFVAAISKGGGITYYSDSVRGRFTISKENAKNTVYLQMNSLKPEDTAVYYCAADPVSSVAKSPVAYPYWGQGTQVTVSS
notes: Produced in E. coli periplasm with tags (anti-myc detection, TALON purification); also called C4 monomer; C4 monohead
EC50 (read off the curve) [7]: ~3000 pM

Molecule: B6
Kd [8]: 91 pM

Other lines, results leading:

IC50, BRE-luciferase, C2C12 cells [2]: 1600 pM
IC50, BRE-luciferase, C2C12 cells [1]: 540 pM
Molecule: human Noggin (from UniProt Q13253 28-232)

binding result [3]: binds
B2: VHH E7 (VHH)
VHH: EVQLVESGGGLVQAGGSLRLSCAASGSIRGFVAMAWYRQAPGKQREWVATVTNGGTLYGDSVKGRFTGSRDNAKNTVYLQMNSLKPEDTAVYYCALRQIGASGYDYWGQGTQVTVSS
notes: also called E7 monomer

binding result [9]: binds
binding result [10]: no binding
binding result [11]: no binding
binding result [12]: no binding
B7: VHH C8 (VHH)
VHH: EVQLVESGGGLVQAGGSLRLSCAASGRTFRINDMGWYRQAPGKSRDMVARITSGGNTNYADSVKGRFTISRDNAKNTVYLQMNSLKPEDTAVYYCNADGLRFDSTRYRPFDSWGQGTQVTVSS
notes: also called C8 monomer
